{
  "source": "paper PMC10764363",
  "target": "EEEV virus-like particles (VLPs: C, E2, and E1) (Eastern equine encephalitis virus) (UniProt Q4QXJ7)",
  "experiment": "ELISA",
  "data": [
    {"substance": "LA3-LA3-LA3-LA3-LA3-Fc [LA3(5)-Fc] (from UniProt P01130) (Fc fusion)", "values": [
      {"measurement": "fold increase in binding avidity", "value": 100, "unit": "fold"}
    ]}
  ]
}
